Test results from the nanobody polyreactivity screen of Harvey et al. (2022).

Test: yeast display, Sf9 membrane polyspecificity reagent, FACS + sequencing; frameworks hold sequencing errors
Outline: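 Genes from sorted yeast were amplified by colony PCR, read by MiSeq 2 × 250 sequencing and filtered on CDR length. These cells carried a synthetic nanobody library in Saccharomyces cerevisiae BJ5465 and were sorted by FACS into low and high (top ~1%) gates on anti-HA and streptavidin fluorescence. Polyreactivity is labelled according to the gate of origin.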

Sequence | polyreactivity (PSR sort gate)
QVQLVESGGGLDQAGGSLRLSCAASGSTFDWYTMGWNRQAPGKERELVAAISSGGRTYYADSVKGRFTISRDNAKNTVYLQMNSLKPEDTAVYYCAVAWRVGITKYGYWGQGTQVTVSS | high polyreactivity
QVQLVETGGGLVQAGGSLRLSCAASGRIFGDNAMGWYRQAPGKEREFVATINGSGGSTYYADSVKGRFTISRDNAKNTVYLKMNRLKPEDTAVYYCFVQQNYGYDYWGQGTQVTVSS | low polyreactivity
QVQLVESGGGLVQAGGSLRLSCAASGSIFLWNAMGWYRQAPGKERELVAAISSGTSTNYADSVKGRFTISRDNANNTVYLQMNSLKPEDTAVYYCAARGRKNQRRYGYWGQGTQVTVSS | low polyreactivity
QFQLVESGGGLVQAGGSLRLSCAASGRIFGGYAMGWYRQAPVKERELVAAIRDSGRTYYADSVKGRFTISRDNAKNTVYLQMNSLKQEDTAVYYFAADAHSTYAPFRWYDYCGQGTQVTVSS | low polyreactivity
QVQLVESGGGLVQAGGSLRLSCAASGRTFHWYTMGWYRLAPGKERELVAAISWSGTTTYYADSVKGRFTISRDNAKNTVYVQMNSLKPEDTAVYYCAFPTYNHNPVSAMTYYYWGQGTQVTVSS | low polyreactivity
QVQLLESGGGLVQAGGSLRLSCAAYGSTFGYNDMGWYRQAPGKVRELVAAITRRSGSTYYADSVKGRFTISRDNAKNSVNLQMNSLKPEDTAVYYCAASYHYGDRWPIRMDYWGQGTQVTVSS | low polyreactivity
QVQLVESGGGLVQAGGSLRLSCASSGRTFLGYAMGWYRQAPGKERELVAAISYSGSSTYYADSVKGRFTISRDNAKNTVYLQMNSLKPEDTAVYYCAAQFYFLFDYWGQGTQVTVSS | low polyreactivity
QVQRVESGGGLVQAGASLRLSCSASGSTFYSNAMGWYRQAPGKERELVAAISGSGGRTYYADSVKGRFTISRDNEKKTVYLQMNSLKPEETAVYFCAVERTRSMGYWGQGTQVTVSS | high polyreactivity
QVQLVETGGGLVQAGGSLRLSCAASGSIFPGNAMGWYRQAPGKERELVAVIDFSGASTYYADSVKGRFTISRDNAKNTVYLQMNSLKPEDTADYWGQGTQVTVSS | low polyreactivity
QVQLVESGGGLVQAGGSLSLSCAATGNTFYINNMGWYRQAPGKEREFVAAITWSGGPTYYADSVKGRFTISRDNAKNTVYLQMNSLKPEDTAVYYCAARRSGRWTGWTFYYWGQGTQVTVSS | high polyreactivity
QVQLVESGGGLVQAGGSLRLSCAASGSIFHYNAMGWYRQAPGKERELVAAITTSGGSTYYADSVKGRFTISRDNAKNTVYLQMNSLKPEDTAVYYCAADLVWTRYFGYAPDYYIEFDYWGQGTQVTVSS | high polyreactivity
QVQLGESGGGLVQAGGSLRLICAASGSTFYYNAMGWSRQAPGKEWELVAAITYSGGDTYYADSVKGRFTMSRDNAKNTVYLQMNSLKPEDTAVYYCAAEYYWYNVYTGHLWYDYWGQGTQVTVSS | high polyreactivity
QVQLVESGGGLVQAGGSLRLSCAASGRTFGLYAMGWYRQAPGKERELVAAMSYSGGSTYYADSVQGRFTISRDNAKNTVYLQMNSLKPEDTAVYYCAAVYYYASRTSKQPYYDWGQGTQVTVSS | high polyreactivity
QVQLVESGGGLVQAGGSLRLSCAASGRIIKLYAMGWYRQAPGKEREFVAAITWSGGRTYYADSVKGRFTISRDNAKNTVYLQMNSLKPEDTAVYYCAAYDTYDWYDYWGQGTQVTVSS | high polyreactivity
QVQLVESGAGLLHAGRSLRLSCPASGRIFRGNAMGCYRQAPGKERELVASISTSGVRTFYADSVKGRFTISRDNAKNTFYLQMNSLKHEDTAVYYCNKRDRYRLYGYNYCGQGTQVTVSS | high polyreactivity
QVQLVESGGGLVQAGGSLRLSCAASGRTLQAYAMGWYRQAPGKERELVAAINSSGGTTYYADSVKGRFTISRDNAKNTVYLQMNSLKPEDTAVYYCAATYWYHGRYYWYAYDYWGQGTQVTVSS | high polyreactivity
QVQLVESGGGLVQAGCSLRLSCAASGFILSDNAMGWYRQAPGKERELVAAINSGGSTYYADSVKGRFTISRDNAKNTVYFQMNSLKPEDSAVYYCAADYSTWLRAYDYWGQGTQVTVSS | low polyreactivity
QVQLVESGGGLVQAGGSLRLSCAASGFTFYRYAMGWYRQAPWKERELVAVISGNAGSTYYADSVKGRFTISRDNAKNTVYLQMNSLKPEDTAVYYCNARKARAYGTFEYWGQGTQVTVSS | high polyreactivity
QVQLVESGGGLVQAGGSLRLSCAASGRIFGGYVMGWYRQAPGKERELVAAISRRGGSTYYADSVKGRFTISRDNAKNTVYLQMNSLKPEDTAVYYCNVASFSYSYKFDYWGQGTQVTVSS | high polyreactivity
QVQLEESGGGLVQAGGSLRLSCVASGSTFRFYAMGWYRPAPGNERQLVAAITWRGTSTYYADSVKGRFTISRDNAKNSVYLQMNSLKPEDTAVYYCNAAGYWPATGDYWGQGTQVTVSS | high polyreactivity
QVQLVESGGGLVQAGGSLRLSCAASGFTFYPYTMGWYRQAPGKERELVAVITYDSTYYADSVKGRFTISRDNAKNTVYLQMNSLKPEDTAVYYCNATGYSVSRSAYWYGWYDYWGQGTQVTVSS | low polyreactivity

Sequence | polyreactivity (PSR sort gate)
QVQLVESGGGLVQAGGSLRLSCAASGIIFANYTMGWYRKAPGKERELVAAISWSGDSTYYADSVKGRFTISRDNAKNTVYLQMNSLKPEDTAVYYCATVNIGYRVWMNYWGQGTQVTVSS | low polyreactivity
QVQLVESGGGLVQAGGSLRLSCAASGRTFRYNTMGWYRQAPRKERELFAAISRGGRTYYADSVKGRFTISRDNAKNTVYLQMNSLKPEVTAVDYCAAPAAGDEYDYWGQGTQVTVSS | high polyreactivity
QVQLVESGGGLVQAGGILRLSCAASGIIYQRNAMGCYRQAPGKERQLVASITAGGDTTYYADSVKGRFTISRDNAKNTVYLQMNSLKPEDTAVYYCAVDSWLDDDDSYPDSILVDYWGQGTQVTVSS | low polyreactivity
QVQHVESGGGLVQAGGSLRLSCAASGNNVMGWYRQAPGKDRELVGAISWSGTSTYADSVKGRFTISRVNAKNTVYLKMNSLKPEDTAVYYCAAEQQGRNYRAYRRYDYWGQGTQVTVSS | low polyreactivity
QVQLVESGGGLVQAGGILRLSCAASGRIFTRYSLGWYRPAPGKESELVAAISSGGSTYYADSVKGRFTISRDNAKNTVYLQMNSLKPEDTAVYYSAAKTRPQRTFSTRQQMNYWGQGTQVTVSS | high polyreactivity
QVQLVESGGGLVQAGGSLRLRCAASGNIFGIYTMAWYRQAPGKESDFVAVISLSGTSTYYADSVKGRFTISRDNAKNTVYLQMNSLKPEDTAVYYCNARTPHNKGRRRAYDYWGQGTEVTVSS | high polyreactivity
HVQLVESGRGLVEAGGSLRLSCAAYGLGCTVNAMVWYIQAPGTERELVARIVWPGITYADSVKGRFTISLDNAMNTVYLQMNSQKPEDTAVYYCAAVWLHHSYYAKYDYWGQRTQVTVSS | low polyreactivity
QVQLVESGGGLVQAGGSLRLSCAAYGSIFAYNAMGWYRQAPGKEREFVAVITRSDDSTYADSVTGRFTISRDNAKNTVYLQMNSLKPVDTAVYYCAAQPFVIDGGYRGDYWGQGTQVTVSS | low polyreactivity
QVQLVESGGGLVQAGGSLRLSCAASGRTSSWYVMGWYRQAPGKERELVAAISGSGGSTYYADSVKGRFTISRDNAKNTVYLQMNSLKPEDTAVYYCAADSWSYSGYNYWGQGTQVTVSS | high polyreactivity
QVQLVESGGGLVQAGGSLRLSCAASGSIFLSNAMVWYRQAPGKERDLVADIDWTGGDTYYADSVKGRFTISRDNAKNTVYLQMNSLKPEDTAVYYCAADYGSRNLLTEYGYWGQGTQVTVSS | low polyreactivity
QVQLVESGGGVVQAGGSLRLSCAASGSTFSAYTMGWYRQAPGKERELVAAISRSGVSTYYADSVKGRFTISRDNAKNTVYLQMNSLKPEDTAVYYCAAPYFVSYQGYDYCGQGTQVTVSS | high polyreactivity
QVQLVESAGGLVQAGGSLRLSCAASGSTFAYNVMGWYRQAPGKERELVASISSSSGSTYYADSVKGRFTISRDNAKNTVYLQMNSLKPEDTAVYYCATYPAYTEYDYWGQGTQVTVSS | high polyreactivity
QVQLVESGGGLVQAGGRLRLSCAASGSIFDIYAMGLYRQAPGKERELVASIRRRGGSTYYADSVKGRFTISRDNAKNTVYLQMNSLKPEDTAVYYCNARRVWLRTTGTNWPERGYWGQGTQVTVSS | high polyreactivity
QVQLVESGGGLVQAGGSLRLSCAASGLTFGLNAMGWYRQAPGKERELVAAITWSGGSTYYADSVKGRFTISRDNAKNTVYLQMNSLKPEDTAVYYCATDNWSVNGGYNYWGQGTQVTVSS | low polyreactivity
QVQLQESGGGLVQAGGSMRLSCAASGSISELRPMGWYRQAPCKQRELDAGISTGGSTNYADSVKGRFTISRDNAKNTVYLQMNSLKPEDTAVYYCASASYGEGTYDYWGQGTQVTVRS | high polyreactivity
QVQLVESGGGLVQAGGSLRLSCAASGRTSPVYAMGWYRQAPGKERELVAAIRGGARTYYADSEKGRFTISRDNAKNTVYLQMNSLKPEDTAVYYCATGSRYRLGPGDSWGQGTQGTVSS | high polyreactivity
QVQLVESGGGLVQAGGSLRLSCAASGSTFLYYAMGWYRQAPGKERELVARITTRVGRTYYADSVKGRFTISRDNAKNTVYFQMNSLKPEDTAVYYCAAYPDYSYYYWGQGTQVTVSS | high polyreactivity
QVQLVESGGGLVQAGVSLRLICAASGFIFPTKVMGWYRQAPATEREFVASITWRGGGTFYADSVKGRFTISRDNAKNTVYLQMNRLKPEDTAVYYCAAGRSWSSFWKYDYWGQGTQVTVSS | low polyreactivity
QVQLVESGGCLLQAGGSLRLSCAASGYTFGKNAMGWYRPAPGKERELVARIRTNGGTTYYADSVKGRFTISRDIAKYTVYLQMYSLKPEDTAVDYCNAYRGYEYDYWGQGTHVTVSS | low polyreactivity
QVQLVESWGGLVQAGGSLRLSCAASGITFYVYAMGWYRQAPGKERELVAAISSGSSTYYADSVKGRFTISRDNAKKTVYLQMNSLKPEDTAVYYCAARYRKYLSEYWGQGTQVTVSS | high polyreactivity
